B1: 15-2 antibody: anti-methoxyl-PEG IgG2b antibody; VH SEQ ID NO: 9, VL SEQ ID NO: 10 (antibody, V domains shown)
VH: EVKLEESGGGLVQPGGSMKLSCVASGFTFSNYWMNWVRQSPEKGLEWVTEIRSKSNNYATHYAESVKGRFTISRDDSKGSVYLQMNNLRAEDTGIYYCSNRYYWGQGTLVTVSA
VL: DIVMTQSHKFMSTSVRDRVTITCKASQDVNTSVAWYQQKPGQSPKLVIYWASTRHTGVPDRFTGSGSGTDFTLTISNVQSEDLADYFCLQYINYPYTFGGGTKLEIKR
modifications: VH domain of 15-2 antibody; VL domain of 15-2 antibody
B2: AGP3 antibody: monoclonal IgM antibody specific to the PEG backbone; VH SEQ ID NO: 1, VL SEQ ID NO: 2 (antibody, V domains shown)
VH: EVQLVESGGGLVKPGGSLKLSCAASGFTFSDYYMYWVRQTPEKRLEWVATISDDGTYTYYPHSVKGRFTISRDSAKNNLYLQLSSLKSEDTAMYYCARNDARGDYWGQGTSVTVSS
VL: DIVLTQAAFSNPVTLGTSASISCRSSKSLLHSNGITYLYWYLQKPGQSPQLLIYQMSNLASGVPDRFSSSGSGTDFTLRISRVEAEDVGVYYCAQNLELFTFGSGTKLEIKR
modifications: VH domain of AGP3 antibody; VL domain of AGP3 antibody

How the values were obtained:
[1] = 3T3/15-2 cell-based or 15-2 antibody-based sandwich ELISA (AGP4-biotin detection); assay type: binding; conditions: cell-based versus antibody-based capture
Description: Anti-methoxyl-PEG cells were used as a platform to establish a sandwich ELISA to quantify all kinds of free methoxyl-PEG molecules. 3T3/15-2 cells were seeded into a 96 wells plate. After that, the methoxyl-PEG was added as an analyte, and then a biotinylated anti-PEG antibody (AGP4-Biotin) was used as a detecting antibody. Finally, streptavidin-HRP was added into the 96 wells plate. After adequate washing, the concentration of methoxyl-PEG was known by observing the color intensity of the matrix coated on the 96 wells plate. With existence of serum, this method can quantify all kinds of free methoxyl-PEG molecules (CH3O-PEG2K and CH3O-PEG5K), and the sensitivity was better than using 3T3/AGP3 platform. Therefore, the sandwich ELISA method using 3T3/15-2 platform can sensitively quantify all kinds of methoxyl-PEG molecules.
To test whether 3T3/15-2 cell-based or 15-2 antibody-based sandwich ELISA could be used to quantify CH3O-PEG molecules, CH3O-PEG (1K, 2K, 5K, and 20K Da) or Lipo-Dox (liposomal doxorubicin conjugated with CH3O-PEG2K) was added to 3T3/15-2 cell or 15-2 antibody coated 96 well/plates, respectively. Captured mPEG molecules were then quantified by sequential addition of biotinylated AGP4 antibody (AGP4-biotin), streptavidin-conjugated horseradish peroxidase (streptavidin-HRP) and ABTS substrate. […] The sensitivity depended on the length of the PEG chain. […]

[2] = tested on: Lipo-Dox (liposomal doxorubicin conjugated with CH3O-PEG2K); assay: as above; assay type: binding; conditions: cell-based versus antibody-based capture
Description: To test whether 3T3/15-2 cell-based or 15-2 antibody-based sandwich ELISA could be used to quantify CH3O-PEG molecules, CH3O-PEG (1K, 2K, 5K, and 20K Da) or Lipo-Dox (liposomal doxorubicin conjugated with CH3O-PEG2K) was added to 3T3/15-2 cell or 15-2 antibody coated 96 well/plates, respectively. Captured mPEG molecules were then quantified by sequential addition of biotinylated AGP4 antibody (AGP4-biotin), streptavidin-conjugated horseradish peroxidase (streptavidin-HRP) and ABTS substrate. […] The sensitivity depended on the length of the PEG chain. CH3O-PEG5K and CH3O-PEG2K could be effectively detected at concentrations as low as 1 nM, respectively.

[3] = Direct binding of PEG5K-biotin, AGP3 antibody-based and 3T3/AGP3 cell-based ELISA; conditions: streptavidin-HRP and ABTS, 405 nm
Description: (§1) To further investigate the potential mechanism that dictates the differential ability in detecting PEG by the cell surface-expressed anti-PEG antibody and coated AGP3 antibody, the present invention compared direct binding of PEG5K-biotin (FIG. 8A) or PEG5K-^131I (FIGS. 8B and 8C) to AGP3 antibody and 3T3/AGP3 cells precoated in 96-well plates.
The 3T3/AGP3 and 3T3/DNS cells (2×10^5 cells/well) were seeded overnight in 96-well plates in culture medium. After extensive washing, captures were fixed by 1% paraformaldehy for 3 min. Plates were blocked with 5% skim milk in PBS for 2 hours at 37° C. PEG5K-biotin was serially diluted and added to the cells at room temperature for 1 h. After washing, streptavidin-HRP and ABTS were sequentially added to the plates to quantify the captured PEG5K-biotin. Color development was measured at 405 nm on a microplate reader. Using this method, the detection limit of PEG5K-biotin in the 3T3/AGP3 cell-based ELISA was 15.6 ng/mL (FIG. 8A).

[4] = Direct binding of PEG5K-131I to AGP3 antibody-coated and 3T3/AGP3 cell-coated plates (γ counter)
Description: as §1
The 3T3/AGP3 and 3T3/DNS cells (2×10^5 cells/well) were seeded overnight in 96-well plates in culture medium. After extensive washing, captures were fixed by 1% paraformaldehy for 3 min. Plates were blocked with 5% skim milk in PBS for 2 hours at 37° C. PEG5K-^131I was serially diluted and added to the cells at room temperature for 1 h. After washing, 1N NaOH was added to elute the bound PEG5K-^131I. The radioactivity of these samples was counted on a γ counter.

Row | Molecule | detection of CH3O-PEG molecules above molecular weight of 2000 Da [1] | detection of Lipo-Dox, apparent avidity [2] | detection limit of PEG5K-biotin [3] | signal intensity per well ([4]; 0.74 μCi/mL PEG5K-131I) | signal intensity per well ([4]; 2.22 μCi/mL PEG5K-131I) | signal intensity per well ([4]; 6.67 μCi/mL PEG5K-131I) | signal intensity per well ([4]; 20 μCi/mL PEG5K-131I)
1 | B1 | Only 3T3/15-2 cell-based sandwich ELISA could detect | similar, apparent avidities | – | – | – | – | –
2 | B2 | – | – | failed to detect | 114 | 210 | 245 | 293

From patent US9329180B2, “Preparation of anti-PEG antibody expressing cell and application thereof” (KAOHSIUNG MEDICAL UNIVERSITY, priority 2010, dated 2016)
